According to patent US20150166606A1 (RA PHARMACEUTICALS, published 2015):
Numbered stars: 1 amine (or outer) side, 2 acyl side, 3 side chain; on linkers, the order of the positions; unused ones are H or OH. Bridge positions count the residues as written; N and C are the ends. Square brackets hold non-standard residues; d marks the D form. Primed or numbered codes have the meaning given here. * marks the point of attachment. N‑ω hexylcarbamate = hexyl carbamate on the ω-nitrogen of the arginine side chain, CCCCCCOC(=O)*; ABP = 2-amino-3-(5-bromothiophen-2-yl)propanoic acid, O=C([C@H](Cc1ccc(Br)s1)N[*:1])[*:2]; mXylyl = xylyl linker from dibromoxylene joining the two cysteines; 4‑BZA = 2-amino-3-(4-carbamimidoylphenyl)propanoic acid; Trp(5-Cl) = N[C@@H](Cc1c[nH]c2ccc(Cl)cc12)C(=O)O; des‑NH2 = missing amino-terminal amine group; Phe(3-Cl) = N[C@@H](Cc1cccc(Cl)c1)C(=O)O; Phe(4-Cl) = N[C@@H](Cc1ccc(Cl)cc1)C(=O)O; Phe(4-amidino)′ = not defined here; Igl = N[C@H](C(=O)O)C1Cc2ccccc2C1; NMeR = CN[C@@H](CCCNC(=N)N)C(=O)O; NMeI = CC[C@H](C)[C@H](NC)C(=O)O; BODIPY‑TMR = fluorescent label; Phg(2-OMe)′ = not defined here; dPhg = N[C@@H](C(=O)O)c1ccccc1; Chg = N[C@H](C(=O)O)C1CCCCC1; Phg = N[C@H](C(=O)O)c1ccccc1; Tle = CC(C)(C)[C@H](N)C(=O)O; αMeP = C[C@@]1(C(=O)O)CCCN1; 2‑APY = not defined here; 3‑BZA = not defined here; Aze = O=C(O)[C@@H]1CCN1; Dab = NCC[C@H](N)C(=O)O; Thp = NC1(C(=O)O)CCOCC1; Ac4c = NC1(C(=O)O)CCC1; Ac3c = NC1(C(=O)O)CC1; Aib = CC(C)(N)C(=O)O; Mpa = O=C(O)CCS

B1: R2201 (peptide)
peptide: {des‑NH2}-CE[Chg]CR[Tle]-NH2
modifications: linker 1-4 via mXylyl
B2: R2197 (peptide)
peptide: {des‑NH2}-CP[Chg]CR-{2‑methyl‑1‑(4H-1,2,4-triazol-3-yl)propan‑1‑amine}
modifications: linker 1-4 via mXylyl
B3: R2209 (peptide)
peptide: {des‑NH2}-CP[Phg]C[Trp(5-Cl)][Tle]-NH2
modifications: linker 1-4 via mXylyl
B4: R2205 (peptide)
peptide: {des‑NH2}-CP[Phg]C[Phe(4-Cl)][Tle]-NH2
modifications: linker 1-4 via mXylyl
B5: R2186 (peptide)
peptide: {des‑NH2}-CP[Chg]CR(N‑ω hexylcarbamate)[Tle]-NH2
modifications: linker 1-4 via mXylyl
B6: R2199 (peptide)
peptide: {des‑NH2}-C[αMeP][Phg]CR[Tle]-NH2
modifications: linker 1-4 via mXylyl
B7: R2200 (peptide)
peptide: {des‑NH2}-C[αMeP][dPhg]CR[Tle]-NH2
modifications: linker 1-4 via mXylyl
B8: R2202 (peptide)
peptide: {des‑NH2}-CP[Phg]CR[Tle]L-OH
modifications: linker 1-4 via mXylyl
B9: R2219 (peptide)
peptide: {des‑NH2}-CP[Phg]C[ABP][Tle]-NH2
modifications: bridge 1-4; not fully specified (residue 1, bridges); printed as [mXylyl(1,4)(des-NH2)C-P-Phg-C-ABP-Tbg-NH2
B10: R2178 (peptide)
peptide: CXAGCRV
modifications: [mXylyl(1,5)](des-NH2)C-(Cyclo-L)-A-Chg-CR-V-NHCH3
B11: R2215 (peptide)
peptide: {des‑NH2}-CP[Phg]C[Phe(4-amidino)′]V-NH2
modifications: linker 1-4 via mXylyl
B12: R2204 (peptide)
peptide: {des‑NH2}-CS[NMeI]CR[Tle]-NH2
modifications: linker 1-4 via mXylyl
B13: R2190 (peptide)
peptide: [Mpa][Aib]A[Chg]CR[Tle]LRYSE-NH2
modifications: linker 1-5 via mXylyl
B14: R2192 (peptide)
peptide: {des‑NH2}-CP[αMePhg]CR[Tle]-NH2
modifications: linker 1-4 via mXylyl
B15: R2203 (peptide)
peptide: {des‑NH2}-CP[Chg]C[2‑amino‑4‑(6-aminopyridin-3-yl)butanoic acid]V-NH2
modifications: linker 1-4 via mXylyl; not fully specified (residue 1)
B16: R2212 (peptide)
peptide: {des‑NH2}-CP[dPhg]C[Dab][Tle]-NH2
modifications: bridge 1-4; not fully specified (residue 1, bridges); printed as [mXylyl(1,4)](des-NH2)C-P-(D-Phg)-C-Dab-Tbg-NH2
B17: R2196 (peptide)
peptide: {des‑NH2}-CP[Chg]CR-{(S)‑2,2‑dimethyl‑1‑(pyridin-2-yl)propan‑1‑amine}
modifications: linker 1-4 via mXylyl
B18: R2210 (peptide)
peptide: {des‑NH2}-CP[dPhg]C[Trp(5-Cl)][Tle]-NH2
modifications: linker 1-4 via mXylyl
B19: R2220 (peptide)
peptide: {des‑NH2}-CP[dPhg]C[ABP][Tle]-NH2
modifications: bridge 1-4; not fully specified (residue 1, bridges); printed as [mXylyl(1,4)](des-NH2)C-P-(D-Phg)-C-ABP-Tbg-NH2
B20: R2188 (peptide)
peptide: {des‑NH2}-CP[Phg]CR[Tle]-NH2
modifications: linker 1-4 via mXylyl
B21: R2213 (peptide)
peptide: {des‑NH2}-CE(PEG 40 kDa)[Chg]CR[Tle]-NH2
modifications: linker 1-4 via mXylyl
B22: R2193 (peptide)
peptide: {BODIPY‑TMR}-MCESICRV-NH2
modifications: linker 2-6 via mXylyl
B23: R2214 (peptide)
peptide: {des‑NH2}-CP[Chg]CR[Tle]-OH
modifications: linker 1-4 via mXylyl
B24: R2208 (peptide)
peptide: {des‑NH2}-CP[dPhg]C[Phe(3-Cl)][Tle]-NH2
modifications: linker 1-4 via mXylyl
B25: R2217 (peptide)
peptide: {des‑NH2}-CP[dPhg]CR[Tle]L[NMeR]YSE-NH2
modifications: linker 1-4 via mXylyl
B26: R2180 (peptide)
peptide: {des‑NH2}-C[αMeP][Chg]CR[Tle]-NH2
modifications: linker 1-4 via mXylyl
B27: R2216 (peptide)
peptide: {des‑NH2}-CP[Phg]CR[Tle]L[NMeR]YSE-NH2
modifications: linker 1-4 via mXylyl
B28: R2183 (peptide)
peptide: {des‑NH2}-CP[Chg]CRV-OH
modifications: linker 1-4 via mXylyl
B29: R2177 (peptide)
peptide: [Mpa][Ac3c][Chg]CR[Tle]-NH2
modifications: linker 1-4 via mXylyl
B30: R2179 (peptide)
peptide: [Mpa][Thp]A[Chg]C[3‑BZA]V-NH2
modifications: linker 1-5 via mXylyl; reading uncertain; also: printed as [mXylyl(1,5)](des-NH2)C-AcPyr-A-Chg-C-(3-BZA)-V-NH2
B31: R2184 (peptide)
peptide: {des‑NH2}-CP[Chg]CRV-NHMe
modifications: linker 1-4 via mXylyl
B32: R2198 (peptide)
peptide: [Mpa]P[Chg]C[2‑APY][Tle]-NH2
modifications: linker 1-4 via mXylyl; reading uncertain; also: printed as [mXylyl(1,4)](Des-NH2)C-P-Chg-C-(2-APY-Tbg-NH2)
B33: R2176 (peptide)
peptide: [Mpa][Aib][Chg]CR[Tle]-NH2
modifications: linker 1-4 via mXylyl
B34: R2187 (peptide)
peptide: {des‑NH2}-CP[dPhg]CR[Tle]-NH2
modifications: linker 1-4 via mXylyl
B35: R2185 (peptide)
peptide: [Mpa][Thp]A[Chg]C[4‑BZA](N‑hexylcarbamate)V-NH2
modifications: linker 1-5 via mXylyl
B36: R2181 (peptide)
peptide: [Mpa][Ac4c][Chg]CR[Tle]-NH2
modifications: linker 1-4 via mXylyl
B37: R2218 (peptide)
peptide: {des‑NH2}-CP[Igl]CR[Tle]-NH2
modifications: bridge 1-4; not fully specified (residue 1, bridges); printed as [mXylyl(1,4)](des-NH2)C-P-Ind-CR-Tbg-NH2
B38: R2221 (peptide)
peptide: {des‑NH2}-CP[Phg]C-{4‑(aminomethyl)benzimidamide}
modifications: linker 1-4 via mXylyl
B39: R2191 (peptide)
peptide: [Mpa][Aib]A[Chg]CR[Tle]LRYSE(PEG 40 kDa)-NH2
modifications: linker 1-5 via mXylyl
B40: R2195 (peptide)
peptide: {des‑NH2}-CP[Chg]CR-OH
modifications: linker 1-4 via mXylyl
B41: R2182 (peptide)
peptide: [Mpa][Thp][Chg]CR[Tle]-NH2
modifications: linker 1-4 via mXylyl
B42: R2211 (peptide)
peptide: {des‑NH2}-CP[Phg]C[Dab][Tle]-NH2
modifications: linker 1-4 via mXylyl; not fully specified (residue 1); printed as [mXylyl(1,4)](des-NH2)C-P-Phg-C-Dab-Tbg-NH2
B43: R2206 (peptide)
peptide: {des‑NH2}-CP[dPhg]C[Phe(4-Cl)][Tle]-NH2
modifications: linker 1-4 via mXylyl
B44: R2189 (peptide)
peptide: {des‑NH2}-CP[Phg(2-OMe)′]CR[Tle]-NH2
modifications: linker 1-4 via mXylyl
B45: R2207 (peptide)
peptide: {des‑NH2}-CP[Phg]C[Phe(3-Cl)][Tle]-NH2
modifications: linker 1-4 via mXylyl
B46: R2194 (peptide)
peptide: [Mpa][Aze][Chg]CR[Tle]-NH2
modifications: linker 1-4 via mXylyl

biological target: Activated human plasma kallikrein (Enzyme Research Laboratories, HPKa 1303) (human, UniProt P03952 20-638); experiment: cell-based or functional assay
Sequence (P03952 20-638 limits assumed): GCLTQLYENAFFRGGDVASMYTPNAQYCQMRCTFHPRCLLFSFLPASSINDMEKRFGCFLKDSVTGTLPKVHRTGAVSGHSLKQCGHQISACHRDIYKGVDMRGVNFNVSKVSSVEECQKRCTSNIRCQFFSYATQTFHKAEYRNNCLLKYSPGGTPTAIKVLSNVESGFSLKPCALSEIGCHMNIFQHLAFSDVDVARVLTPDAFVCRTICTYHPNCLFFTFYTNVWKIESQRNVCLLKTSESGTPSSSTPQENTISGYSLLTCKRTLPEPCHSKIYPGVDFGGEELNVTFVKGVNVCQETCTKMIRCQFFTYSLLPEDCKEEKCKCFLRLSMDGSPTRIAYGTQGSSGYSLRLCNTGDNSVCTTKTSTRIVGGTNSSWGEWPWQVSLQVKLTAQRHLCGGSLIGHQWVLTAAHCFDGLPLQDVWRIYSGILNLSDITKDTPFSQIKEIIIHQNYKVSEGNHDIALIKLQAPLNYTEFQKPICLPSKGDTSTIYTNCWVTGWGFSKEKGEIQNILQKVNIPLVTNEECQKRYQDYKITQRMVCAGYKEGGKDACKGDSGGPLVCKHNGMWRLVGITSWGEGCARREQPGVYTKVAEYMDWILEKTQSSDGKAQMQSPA

Row | Binder | Avg. IC50 [nM]
1 | B1 | 7
2 | B2 | 56.9
3 | B3 | > 75000
4 | B4 | > 75000
5 | B5 | > 100000
6 | B6 | 0.54
7 | B7 | 470
8 | B8 | 58.8
9 | B9 | > 100000
10 | B10 | 3.2
11 | B11 | 6390
12 | B12 | > 25000
13 | B13 | 0.511
14 | B14 | 851
15 | B15 | > 10000
16 | B16 | > 100000
17 | B17 | 35.6
18 | B18 | > 75000
19 | B19 | > 100000
20 | B20 | 3.4
21 | B21 | 462
22 | B22 | 205
23 | B23 | 4000

Row | Binder | Avg. IC50 [nM]
24 | B24 | > 75000
25 | B25 | 114
26 | B26 | 6.8
27 | B27 | 0.913
28 | B28 | > 3500
29 | B29 | 34.1
30 | B30 | > 8230
31 | B31 | 15.7
32 | B32 | > 15000
33 | B33 | 15.2
34 | B34 | > 4700
35 | B35 | > 100000
36 | B36 | 18.5
37 | B37 | 3
38 | B38 | 401
39 | B39 | 5.5
40 | B40 | > 175000
41 | B41 | 13.5
42 | B42 | > 75000
43 | B43 | > 75000
44 | B44 | 39.8
45 | B45 | > 75000
46 | B46 | 127
